Laboratory results taken from patent US20160272683A1 (Novo Nordisk, published 2016).
Numbered stars: 1 amine (or outer) side, 2 acyl side, 3 side chain; on linkers, the order of the positions; unused ones are H or OH. * marks the point of attachment. C20 diacid = O=C(O)CCCCCCCCCCCCCCCCCCC(=O)*; C18 diacid = O=C(O)CCCCCCCCCCCCCCCCC(=O)*; γGlu = O=C(O)[C@H](CCC(=O)[*:2])N[*:1]

Tests used:
[1] = molecular target: T1, human amylin 3(a) receptor (human calcitonin receptor co-expressed with RAMP-3) (human, UniProt P30988 25-474; O60896 24-148, limits assumed); experiment: cell-based or functional assay
T1 sequence (looked up) 1: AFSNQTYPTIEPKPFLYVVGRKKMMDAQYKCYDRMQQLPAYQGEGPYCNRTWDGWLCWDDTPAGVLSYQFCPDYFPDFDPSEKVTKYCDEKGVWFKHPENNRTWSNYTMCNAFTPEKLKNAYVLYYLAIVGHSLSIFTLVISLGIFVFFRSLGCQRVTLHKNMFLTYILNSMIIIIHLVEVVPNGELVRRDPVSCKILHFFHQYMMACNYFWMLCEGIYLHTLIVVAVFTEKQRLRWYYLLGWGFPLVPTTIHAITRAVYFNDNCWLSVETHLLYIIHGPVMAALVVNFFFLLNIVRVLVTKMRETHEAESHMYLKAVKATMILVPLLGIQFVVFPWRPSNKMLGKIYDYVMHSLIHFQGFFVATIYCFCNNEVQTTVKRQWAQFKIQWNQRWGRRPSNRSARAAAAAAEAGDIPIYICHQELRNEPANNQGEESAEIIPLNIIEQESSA
T1 sequence (looked up) 2: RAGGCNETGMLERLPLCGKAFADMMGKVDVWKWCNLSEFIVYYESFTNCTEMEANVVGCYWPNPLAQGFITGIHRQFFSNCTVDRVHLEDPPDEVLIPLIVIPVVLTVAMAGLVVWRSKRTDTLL

[2] = molecular target: T2, human calcitonin receptor (human, UniProt P30988 25-474); experiment: cell-based or functional assay
T2 sequence (looked up): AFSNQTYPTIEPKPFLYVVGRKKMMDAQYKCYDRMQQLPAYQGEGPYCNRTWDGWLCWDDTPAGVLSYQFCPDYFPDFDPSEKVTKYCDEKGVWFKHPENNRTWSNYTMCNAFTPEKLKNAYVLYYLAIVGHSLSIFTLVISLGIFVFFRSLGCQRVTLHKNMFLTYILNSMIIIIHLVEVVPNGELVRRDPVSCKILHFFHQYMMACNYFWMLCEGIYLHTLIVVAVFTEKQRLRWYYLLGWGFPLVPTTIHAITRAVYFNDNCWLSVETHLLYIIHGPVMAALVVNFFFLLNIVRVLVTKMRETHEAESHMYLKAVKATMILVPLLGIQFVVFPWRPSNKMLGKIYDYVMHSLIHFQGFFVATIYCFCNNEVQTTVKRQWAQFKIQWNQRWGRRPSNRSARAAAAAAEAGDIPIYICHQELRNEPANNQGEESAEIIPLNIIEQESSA

Row | Binder | hAmylin-R funct. EC50 (pM) [1] [pM] | hCTR funct. EC50 (pM) [2] [pM]
1 | {C20 diacid-γGlu}-LSGLSTAVLGRLSAELHELSTYPRTETGSGTY-NH2 (SMILES CC(C)C[C@H](NC(=O)CC[C@H](NC(=O)CCCCCCCCCCCCCCCCCCC(=O)O)C(=O)O)C(=O)N[C@@H](CO)C(=O)NCC(=O)N[C@@H](CC(C)C)C(=O)N[C@@H](CO)C(=O)N[C@H](C(=O)N[C@@H](C)C(=O)N[C@H](C(=O)N[C@@H](CC(C)C)C(=O)NCC(=O)N[C@@H](CCCNC(=N)N)C(=O)N[C@@H](CC(C)C)C(=O)N[C@@H](CO)C(=O)N[C@@H](C)C(=O)N[C@@H](CCC(=O)O)C(=O)N[C@@H](CC(C)C)C(=O)N[C@@H](Cc1c[nH]cn1)C(=O)N[C@@H](CCC(=O)O)C(=O)N[C@@H](CC(C)C)C(=O)N[C@@H](CO)C(=O)N[C@H](C(=O)N[C@@H](Cc1ccc(O)cc1)C(=O)N1CCC[C@H]1C(=O)N[C@@H](CCCNC(=N)N)C(=O)N[C@H](C(=O)N[C@@H](CCC(=O)O)C(=O)N[C@H](C(=O)NCC(=O)N[C@@H](CO)C(=O)NCC(=O)N[C@H](C(=O)N[C@@H](Cc1ccc(O)cc1)C(N)=O)[C@@H](C)O)[C@@H](C)O)[C@@H](C)O)[C@@H](C)O)C(C)C)[C@@H](C)O) [[N-terminal(C20 diacid-gGlu), des1, 2L, 4G, 9V, 21S, 23Y, 30S, 31G, 32T, 33Y]mimylin] | 24 | 28
2 | {C18 diacid}-EASELSTAALGRLSAELHEIATLPRTETGPESP-NH2 (SMILES CC[C@H](C)[C@H](NC(=O)[C@H](CCC(=O)O)NC(=O)[C@H](Cc1c[nH]cn1)NC(=O)[C@H](CC(C)C)NC(=O)[C@H](CCC(=O)O)NC(=O)[C@H](C)NC(=O)[C@H](CO)NC(=O)[C@H](CC(C)C)NC(=O)[C@H](CCCNC(=N)N)NC(=O)CNC(=O)[C@H](CC(C)C)NC(=O)[C@H](C)NC(=O)[C@H](C)NC(=O)[C@@H](NC(=O)[C@H](CO)NC(=O)[C@H](CC(C)C)NC(=O)[C@H](CCC(=O)O)NC(=O)[C@H](CO)NC(=O)[C@H](C)NC(=O)[C@H](CCC(=O)O)NC(=O)CCCCCCCCCCCCCCCCC(=O)O)[C@@H](C)O)C(=O)N[C@@H](C)C(=O)N[C@H](C(=O)N[C@@H](CC(C)C)C(=O)N1CCC[C@H]1C(=O)N[C@@H](CCCNC(=N)N)C(=O)N[C@H](C(=O)N[C@@H](CCC(=O)O)C(=O)N[C@H](C(=O)NCC(=O)N1CCC[C@H]1C(=O)N[C@@H](CCC(=O)O)C(=O)N[C@@H](CO)C(=O)N1CCC[C@H]1C(N)=O)[C@@H](C)O)[C@@H](C)O)[C@@H](C)O) [[N-terminal(C18 diacid), 20I]mimylin] | 6 | 5
3 | {C20 diacid-γGlu}-LSGLSTAVLGRLSQELHELQTYPRTETGSQTY-NH2 (SMILES CC(C)C[C@H](NC(=O)CC[C@H](NC(=O)CCCCCCCCCCCCCCCCCCC(=O)O)C(=O)O)C(=O)N[C@@H](CO)C(=O)NCC(=O)N[C@@H](CC(C)C)C(=O)N[C@@H](CO)C(=O)N[C@H](C(=O)N[C@@H](C)C(=O)N[C@H](C(=O)N[C@@H](CC(C)C)C(=O)NCC(=O)N[C@@H](CCCNC(=N)N)C(=O)N[C@@H](CC(C)C)C(=O)N[C@@H](CO)C(=O)N[C@@H](CCC(N)=O)C(=O)N[C@@H](CCC(=O)O)C(=O)N[C@@H](CC(C)C)C(=O)N[C@@H](Cc1c[nH]cn1)C(=O)N[C@@H](CCC(=O)O)C(=O)N[C@@H](CC(C)C)C(=O)N[C@@H](CCC(N)=O)C(=O)N[C@H](C(=O)N[C@@H](Cc1ccc(O)cc1)C(=O)N1CCC[C@H]1C(=O)N[C@@H](CCCNC(=N)N)C(=O)N[C@H](C(=O)N[C@@H](CCC(=O)O)C(=O)N[C@H](C(=O)NCC(=O)N[C@@H](CO)C(=O)N[C@@H](CCC(N)=O)C(=O)N[C@H](C(=O)N[C@@H](Cc1ccc(O)cc1)C(N)=O)[C@@H](C)O)[C@@H](C)O)[C@@H](C)O)[C@@H](C)O)C(C)C)[C@@H](C)O) [[N-terminal(C20 diacid-gGlu), des1, 2L, 4G, 9V, 15Q, 21Q, 23Y, 30S, 31Q, 32T, 33Y]mimylin] | 31 | 31
4 | {C20 diacid-γGlu}-ASGLSTLVLGRLSQELHELQTYPRTETGSQTY-NH2 (SMILES CC(C)C[C@H](NC(=O)CNC(=O)[C@H](CO)NC(=O)[C@H](C)NC(=O)CC[C@H](NC(=O)CCCCCCCCCCCCCCCCCCC(=O)O)C(=O)O)C(=O)N[C@@H](CO)C(=O)N[C@H](C(=O)N[C@@H](CC(C)C)C(=O)N[C@H](C(=O)N[C@@H](CC(C)C)C(=O)NCC(=O)N[C@@H](CCCNC(=N)N)C(=O)N[C@@H](CC(C)C)C(=O)N[C@@H](CO)C(=O)N[C@@H](CCC(N)=O)C(=O)N[C@@H](CCC(=O)O)C(=O)N[C@@H](CC(C)C)C(=O)N[C@@H](Cc1c[nH]cn1)C(=O)N[C@@H](CCC(=O)O)C(=O)N[C@@H](CC(C)C)C(=O)N[C@@H](CCC(N)=O)C(=O)N[C@H](C(=O)N[C@@H](Cc1ccc(O)cc1)C(=O)N1CCC[C@H]1C(=O)N[C@@H](CCCNC(=N)N)C(=O)N[C@H](C(=O)N[C@@H](CCC(=O)O)C(=O)N[C@H](C(=O)NCC(=O)N[C@@H](CO)C(=O)N[C@@H](CCC(N)=O)C(=O)N[C@H](C(=O)N[C@@H](Cc1ccc(O)cc1)C(N)=O)[C@@H](C)O)[C@@H](C)O)[C@@H](C)O)[C@@H](C)O)C(C)C)[C@@H](C)O) [[N-terminal(C20 diacid-gGlu), des1, 4G, 8L, 9V, 15Q, 21Q, 23Y, 30S, 31Q, 32T, 33Y]mimylin] | 52 | 40
5 | {C20 diacid-γGlu}-ASGLSTATLGRLSQELHELQTYPRTETGSGTY-NH2 [[N-terminal(C20 diacid-gGlu), des1, 4G, 9T, 15Q, 21Q, 23Y, 30S, 31G, 32T, 33Y]mimylin] | 40 | 34
6 | {C20 diacid-γGlu}-ASGLSTAVLGRLSQELHELQTYPPTETGSQTY-NH2 (SMILES CC(C)C[C@H](NC(=O)CNC(=O)[C@H](CO)NC(=O)[C@H](C)NC(=O)CC[C@H](NC(=O)CCCCCCCCCCCCCCCCCCC(=O)O)C(=O)O)C(=O)N[C@@H](CO)C(=O)N[C@H](C(=O)N[C@@H](C)C(=O)N[C@H](C(=O)N[C@@H](CC(C)C)C(=O)NCC(=O)N[C@@H](CCCNC(=N)N)C(=O)N[C@@H](CC(C)C)C(=O)N[C@@H](CO)C(=O)N[C@@H](CCC(N)=O)C(=O)N[C@@H](CCC(=O)O)C(=O)N[C@@H](CC(C)C)C(=O)N[C@@H](Cc1c[nH]cn1)C(=O)N[C@@H](CCC(=O)O)C(=O)N[C@@H](CC(C)C)C(=O)N[C@@H](CCC(N)=O)C(=O)N[C@H](C(=O)N[C@@H](Cc1ccc(O)cc1)C(=O)N1CCC[C@H]1C(=O)N1CCC[C@H]1C(=O)N[C@H](C(=O)N[C@@H](CCC(=O)O)C(=O)N[C@H](C(=O)NCC(=O)N[C@@H](CO)C(=O)N[C@@H](CCC(N)=O)C(=O)N[C@H](C(=O)N[C@@H](Cc1ccc(O)cc1)C(N)=O)[C@@H](C)O)[C@@H](C)O)[C@@H](C)O)[C@@H](C)O)C(C)C)[C@@H](C)O) [[N-terminal(C20 diacid-gGlu), des1, 4G, 9V, 15Q, 21Q, 23Y, 25P, 30S, 31Q, 32T, 33Y]mimylin] | 70 | 57
